{"source": "paper PMC4635490", "about": "“VP22 core domain from Herpes simplex virus 1 reveals a surprising structural conservation in both the Alpha- and Gammaherpesvirinae subfamilies” (The Journal of General Virology, 2015)", "biological_target": "the molecule itself", "test": "SEC-MALS; Superdex 200 5/150 GL, 20 mM HEPES pH 7.5, 300 mM NaCl, 10 % glycerol, 2 mM TCEP; 20 µl of 6 mg/ml VP22core injected, 0.3 ml/min"}
{"protein": "VP22 core domain (conserved C-terminal domain) from Herpes simplex virus 1, residues 174-281 (domain or fragment, VP22 tegument protein of Herpes simplex virus 1 (Human herpesvirus 1), GenBank BAE87004.1, residues 174-281; electron density seen for residues 174-260 plus three amino acids of the N-terminal tag; The tag was not removed: the monomer mass of 14 551 g/mol includes the purification tag and the TEV site; source: bacterial cells, purified (HisTrap HP, Superdex 75 size exclusion); not shown: His6, …) RKLHFSTAPPNPDAPWTPRVAGFNKRVFCAAVGRLAAMHARMAAVQLWDMSRPRTDEDLNELLGITTIRVTVCEGKNLLQRANELVNPDVVQDVDAATATRGRSAASR", "values": [{"measurement": "stoichiometry N", "value": 2}]}
